Data on one protein can be found in paper PMC10307625, “Inhibiting membrane rupture with NINJ1 antibodies limits tissue injury” (Nature, 2023).

This series deals with the molecule itself. In words: SEC; purified Flag–NINJ1 alone on Superose 6 Increase 10/300 GL; 20 mM HEPES pH 7.5, 150 mM NaCl, 0.005% LMNG, 0.0005% CHS; peak at 8.5 ml retention volume.

B1: N-terminally Flag-tagged mouse NINJ1 (natural protein, UniProt O70131 1-152, looked up)
chain: MESGTEEYELNGDLRPGSPGSPDALPPRWGLRNRPINVNHYANKKSAAESMLDIALLMANASQLKAVVEQGNDFAFFVPLVVLISISLVLQIGVGVLLIFLVKYDLNNPAKHAKLDFLNNLATGLVFIIVVVNIFITAFGVQKPVMDVAPRQ
notes: NINJ1 (ninjurin-1), mouse, expressed from pRK-Flag-mNINJ1; Membrane protein solubilised in 1% LMNG / 0.1% CHS; the oligomer size is heterogeneous and no copy number is told; also called Flag–NINJ1; recombinant NINJ1; source: Expi293F cells, transiently transfected, purified (anti-Flag M2 resin, Superose 6 SEC) in LMNG/CHS; not shown: FLAG, N-terminal, kept
Consider B1, for which the binding result is recorded as “binds”.
